Data on one substance can be found in patent US20070110760A1.

The target in this assay is Syk kinase (endogenous, in cell lysates) (not stated (endogenous in murine NMuMG cells and in Bal-17 B cells)) (UniProt P48025). The assay is described as follows: co-immunoprecipitation in the presence of tyrosine phosphatase inhibitors, NMuMG lysates, three independent experiments.
Chain of Syk kinase (endogenous, in cell lysates) (not stated (endogenous in murine NMuMG cells and in Bal-17 B cells)) (P48025 whole entry): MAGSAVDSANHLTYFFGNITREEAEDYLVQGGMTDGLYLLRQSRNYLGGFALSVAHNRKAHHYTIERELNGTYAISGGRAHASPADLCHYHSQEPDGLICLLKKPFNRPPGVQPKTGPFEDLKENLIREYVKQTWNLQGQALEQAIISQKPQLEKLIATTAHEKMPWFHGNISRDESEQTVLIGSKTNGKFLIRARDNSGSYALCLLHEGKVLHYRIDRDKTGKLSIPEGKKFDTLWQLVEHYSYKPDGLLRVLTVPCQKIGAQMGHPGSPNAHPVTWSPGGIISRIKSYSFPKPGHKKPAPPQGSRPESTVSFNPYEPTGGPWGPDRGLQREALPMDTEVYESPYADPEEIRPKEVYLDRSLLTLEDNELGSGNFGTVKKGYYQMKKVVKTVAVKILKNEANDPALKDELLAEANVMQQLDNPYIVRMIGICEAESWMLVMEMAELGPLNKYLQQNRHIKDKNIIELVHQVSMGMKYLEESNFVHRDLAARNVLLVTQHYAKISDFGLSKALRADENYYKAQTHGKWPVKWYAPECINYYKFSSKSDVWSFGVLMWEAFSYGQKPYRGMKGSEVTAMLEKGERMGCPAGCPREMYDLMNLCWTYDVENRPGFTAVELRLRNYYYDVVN

As for “MMTV Env surface unit (SU or gp52), unmutated envelope (from UniProt P03374 99-454)”, the percent of SU co-immunoprecipitated with Syk was below 34%.
